Source: article PMC13235457 (2026)
Non-standard residues stand in square brackets, D forms with d. No end group written: not given here. pY = N[C@@H](Cc1ccc(OP(=O)(O)O)cc1)C(=O)O

Columns and labels:
[1] = biological target: Syk tandem SH2 (tSH2) domain; assay: FP; 0 mM KCl, 150 mM NaCl
[2] = biological target: Syk tandem SH2 (tSH2) domain; assay: FP; 5 mM KCl, 145 mM NaCl
[3] = biological target: Syk tandem SH2 (tSH2) domain; assay: FP; 50 mM KCl, 100 mM NaCl
[4] = biological target: Syk tandem SH2 (tSH2) domain; assay: FP; 20 mM KCl, 130 mM NaCl
[5] = biological target: Syk tandem SH2 (tSH2) domain; assay: intrinsic Trp fluorescence; 0 mM KCl, 150 mM NaCl
[6] = biological target: Syk tandem SH2 (tSH2) domain; assay: intrinsic Trp fluorescence; 5 mM KCl, 145 mM NaCl
[7] = biological target: Syk tandem SH2 (tSH2) domain; assay: intrinsic Trp fluorescence; 50 mM KCl, 100 mM NaCl
[8] = biological target: Syk tandem SH2 (tSH2) domain; assay: intrinsic Trp fluorescence; 20 mM KCl, 130 mM NaCl

| Kd [1] | Kd [2] | Kd [3] | Kd [4] | Kd [5] | Kd [6] | Kd [7] | Kd [8] | Binder |
| --- | --- | --- | --- | --- | --- | --- | --- | --- |
| 85.5 nM | 85.5 nM | 84.9 nM | 81.1 nM |  |  |  |  | NQL[pY]NELNLGRREE[pY]DVLD (also: AlexaFluor 488 label, position not given here) [ITAM-ζ1-Y2P peptide labeled with AlexaFluor488] |
|  |  |  |  | 97.5 nM | 86 nM | 82.7 nM | 84.3 nM | NQL[pY]NELNLGRREE[pY]DVLD [ITAM-ζ1-Y2P peptide (doubly phosphorylated first ITAM of the CD3-ζ chain)] |
